Measurements from patent US20100160262.

Molecular target: enzymatically [3H] acetylated histone H3 peptide (amino acids 1-24) (UniProt P68431)

Question: human SIRT2 with a C-terminal FLAG tag was tested. Which “standard histone deacetylase assay (radioactive, H3 peptide substrate)” value did it give?
Answer: These enzymes also deacetylate histones as determined in a standard histone deacetylase assay
